Holding throughout (format): in vivo, human
In one assay the test system is TOV-112D cells. The experiment in a line: TOV-112D ovarian xenograft (subcutaneous) tumor growth inhibition. To be noted: SCID mice (native murine Dll4); REGN421 2.5 mg/kg or mDll4Ab1 5 mg/kg 1x/week. As to the method: (§1) Ovarian tumor xenograft cells were implanted into humanized Dll4 SCID mice or vendor SCID mice (i.e., SCID mice expressing native murine Dll4). After implantation, mice were treated with REGN421 (anti-human Dll4 antibody, binds to human Dll4), mDll4Ab1 (anti-murine Dll4 antibody, binds to murine Dll4), or a human Fc domain control protein. In one study, mice were treated with VEGF-Trap, mDll4Ab1 or VEGF-Trap plus mDll4Ab1. TOV-112D cells (5×10^6) were implanted subcutaneously into the right flank of humanized Dll4 (n=4) or vendor SCID mice (n=7). Treatment with REGN421 (2.5 mg/kg, 1×/week) or mDll4Ab1 (5 mg/kg, 1×/week) vs. hFc control was initiated one week after tumor cell implantation. Animals were treated for 2 to 3 weeks. A2780 cells (2×10^6) were implanted intraperitoneally into humanized Dll4 or vendor SCID mice (n=4-5). Treatment with REGN421 (2.5 mg/kg, 1×/week) or mDll4Ab1 (5 mg/kg, 1×/week) vs. hFc control was initiated one week after tumor cell implantation. For the A2780 combination study, simultaneous treatment with mDll4Ab1 (5 mg/kg, 1×/week) and VEGF-Trap (10 mg/kg, 2×/week) was initiated one week after tumor cell implantation. A VEGF-Trap single treatment arm was included in this study. Animals bearing A2780 tumors were treated for 4-5 weeks. SKOV-3 cells (5×10^6) in matrigel were implanted subcutaneously and tumor-bearing animals (n=10) were dosed with REGN421 (2.5 mg/kg) and mDll4Ab1 (5 mg/kg) once weekly. OVCAR-3 cells (1×10^7) were implanted subcutaneously into the right flank of vendor SCID mice (n=7). Treatment with mDll4Ab1 (5 mg/kg 1×/week) vs. hFc control was initiated 66 days after tumor cell implantation. Animals were treated for a total of 5 weeks. Tumor growth inhibition (TGI) was measured as detailed above.

Another assay concerns A2780 cells. The experiment in a line: A2780 ovarian xenograft (intraperitoneal) tumor growth inhibition. To be noted: SCID mice (native murine Dll4); REGN421 2.5 mg/kg 1x/week, mDll4Ab1 5 mg/kg 1x/week, VEGF-Trap 10 mg/kg 2x/week. As to the method:
as §1

The subject of a further assay is SKOV-3 cells. The experiment in a line: SKOV-3 ovarian xenograft (subcutaneous) tumor growth inhibition. To be noted: SCID mice; mDll4Ab1 5 mg/kg once weekly. As to the method:
as §1, with “SKOV-3 cells (5×10^6) in matrigel were implanted subcutaneously and tumor-bearing animals (n=10) were dosed with REGN421 (2.5 mg/kg) and mDll4Ab1 (5 mg/kg) once weekly. OVCAR-3 cells (1×10^7) were implanted subcutaneously into the right flank of vendor SCID mice (n=7). Treatment with mDll4Ab1 (5 mg/kg 1×/week) vs. hFc control was initiated 66 days after tumor cell implantation. Animals were treated for a total of 5 weeks.” left out

A further assay concerns OVCAR-3 cells. The experiment in a line: OVCAR-3 ovarian xenograft (subcutaneous) tumor growth inhibition. As to conditions: SCID mice; mDll4Ab1 5 mg/kg 1x/week, 5 weeks. As to the method: as §1, with “SKOV-3 cells (5×10^6) in matrigel were implanted subcutaneously and tumor-bearing animals (n=10) were dosed with REGN421 (2.5 mg/kg) and mDll4Ab1 (5 mg/kg) once weekly. OVCAR-3 cells (1×10^7) were implanted subcutaneously into the right flank of vendor SCID mice (n=7). Treatment with mDll4Ab1 (5 mg/kg 1×/week) vs. hFc control was initiated 66 days after tumor cell implantation. Animals were treated for a total of 5 weeks.” left out

Assay [1] deals with TOV-112D ovarian tumor xenografts. Kind of assay: Tumor microvascular density by CD31 staining, TOV-112D xenograft. To be noted: native Dll4 SCID mice. As to the method:
(§2) Quantitation of tumor microvascular density was evaluated immunohistochemically using CD31 staining. Native Dll4 SCID mice with TOV-112D and SKOV-3 ovarian tumor xenografts were treated with the anti-murine Dll4 antibody mDll4Ab1 or hFc (control). […] A reduction of tumor perfusion was also seen (data not shown).

Assay [2] has as its system SKOV-3 ovarian tumor xenografts. The experiment in a line: Tumor microvascular density by CD31 staining, SKOV-3 xenograft. To be noted: native Dll4 SCID mice. As to the method: as §2
Assay [3] relates to TOV-112D and SKOV-3 ovarian tumor xenografts. Kind of assay: Tumor perfusion in ovarian tumor xenografts. As to conditions: data not shown. As to the method: as §2

B1: mDII4Ab1: anti-murine Dll4 antibody with LCVR and HCVR of SEQ ID NO:122 and 123 (antibody)
heavy: EVQLVESGGDLVKPGGSLKLSCTASGFTFSNYGMSWVRQTPDKRLGWVATISTAGSYTYYPDSVKGRFTISRDNAKNTLYLQMSSLKSEDTAMYYCARHPGVADFDYWGQGTTLTVSSAKTTAPSVYPLAPVCGDTTGSSVTLGCLVKGYFPEPVTLTWNSGSLSSGVHTFPAVLQSDLYTLSSSVTVTSSTWPSQSITCNVAHPASSTKVDKKIEPRGPTIKPCPPCKCPAPNLLGGPSVFIFPPKIKDVLMISLSPIVTCVVVDVSEDDPDVQISWFVNNVEVHTAQTQTHREDYNSTLRVVSALPIQHQDWMSGKEFKCKVNNKDLPAPIERTISKPKGSVRAPQVYVLPPPEEEMTKKQVTLTCMVTDFMPEDIYVEWTNNGKTELNYKNTEPVLDSDGSYFMYSKLRVEKKNWVERNSYSCSVVHEGLHNHHTTKSFSRTPGK
light: DIVMTQSHKFMSISEGDRVSITCKARQDVTTSVAWYQQKPGQSPKLLIYWASTRHTGVPDRFTGSGSGTDFTLTISSVQAEDLALYYCQQHYSTPYTFGGGTKLEIKRADAAPTVSIFPPSSEQLTSGGASVVCFLNNFYPKDINVKWKIDGSERQNGVLNSWTDQDSKDSTYSMSSTLTLTKDEYERHNSYTCEATHKTSTSPIVKSFNRGEC
Regarding B1, the “% TGI” value was found to be 74% in the assay on TOV-112D cells, 70% in the assay with A2780 cells, 64% with SKOV-3 cells and 84% with OVCAR-3 cells. Moreover, the “Increase in Vessel Area vs. hFc (%)” value was determined as 276.5% in assay [1] and 146.8% in assay [2]. In addition, the “Vessel Area (%), percent vessel fraction over total tumor area” value in assay [1] is 5.53%; in assay [2] it was 4.36%. Moreover, the tumor perfusion entry in assay [3] was “reduction”.

The values are drawn from patent US20140134169A1, “Methods of Treating Ovarian Cancer with Dll4 Antagonists” (Regeneron Pharmaceuticals, Inc., priority 2012, published 2014).
